Laboratory results taken from patent US20200339702A1 (ULTRAHUMAN THIRTEEN, published 2020).

T1: rhesus monkey ERBB3 His tag, monomeric (rhesus monkey (Macaca mulatta), UniProt P21860 20-643 (human entry), limits assumed)
T1 chain: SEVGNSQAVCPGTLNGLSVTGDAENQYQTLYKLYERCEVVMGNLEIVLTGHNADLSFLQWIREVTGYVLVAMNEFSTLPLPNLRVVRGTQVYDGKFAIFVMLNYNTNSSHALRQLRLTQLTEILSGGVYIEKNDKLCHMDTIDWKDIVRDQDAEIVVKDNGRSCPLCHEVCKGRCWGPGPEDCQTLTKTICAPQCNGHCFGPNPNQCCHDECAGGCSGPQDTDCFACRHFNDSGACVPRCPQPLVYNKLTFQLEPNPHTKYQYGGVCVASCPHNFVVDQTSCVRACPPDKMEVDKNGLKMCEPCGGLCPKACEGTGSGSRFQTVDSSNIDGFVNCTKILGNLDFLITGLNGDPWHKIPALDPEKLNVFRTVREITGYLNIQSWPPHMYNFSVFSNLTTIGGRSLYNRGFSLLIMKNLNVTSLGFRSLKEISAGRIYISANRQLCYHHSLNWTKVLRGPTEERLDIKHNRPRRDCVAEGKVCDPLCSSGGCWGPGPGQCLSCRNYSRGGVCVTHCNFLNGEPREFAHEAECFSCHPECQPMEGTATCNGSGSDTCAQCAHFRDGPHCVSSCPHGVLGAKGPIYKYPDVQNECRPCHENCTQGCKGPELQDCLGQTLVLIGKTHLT

T2: rhesus ERBB3 on transiently transfected HEK-293 cells (rhesus monkey (Macaca mulatta), UniProt P21860 20-1342 (human entry))
T2 construct: also called rhesus ERBB3+ HEK-293 cells
T2 chain: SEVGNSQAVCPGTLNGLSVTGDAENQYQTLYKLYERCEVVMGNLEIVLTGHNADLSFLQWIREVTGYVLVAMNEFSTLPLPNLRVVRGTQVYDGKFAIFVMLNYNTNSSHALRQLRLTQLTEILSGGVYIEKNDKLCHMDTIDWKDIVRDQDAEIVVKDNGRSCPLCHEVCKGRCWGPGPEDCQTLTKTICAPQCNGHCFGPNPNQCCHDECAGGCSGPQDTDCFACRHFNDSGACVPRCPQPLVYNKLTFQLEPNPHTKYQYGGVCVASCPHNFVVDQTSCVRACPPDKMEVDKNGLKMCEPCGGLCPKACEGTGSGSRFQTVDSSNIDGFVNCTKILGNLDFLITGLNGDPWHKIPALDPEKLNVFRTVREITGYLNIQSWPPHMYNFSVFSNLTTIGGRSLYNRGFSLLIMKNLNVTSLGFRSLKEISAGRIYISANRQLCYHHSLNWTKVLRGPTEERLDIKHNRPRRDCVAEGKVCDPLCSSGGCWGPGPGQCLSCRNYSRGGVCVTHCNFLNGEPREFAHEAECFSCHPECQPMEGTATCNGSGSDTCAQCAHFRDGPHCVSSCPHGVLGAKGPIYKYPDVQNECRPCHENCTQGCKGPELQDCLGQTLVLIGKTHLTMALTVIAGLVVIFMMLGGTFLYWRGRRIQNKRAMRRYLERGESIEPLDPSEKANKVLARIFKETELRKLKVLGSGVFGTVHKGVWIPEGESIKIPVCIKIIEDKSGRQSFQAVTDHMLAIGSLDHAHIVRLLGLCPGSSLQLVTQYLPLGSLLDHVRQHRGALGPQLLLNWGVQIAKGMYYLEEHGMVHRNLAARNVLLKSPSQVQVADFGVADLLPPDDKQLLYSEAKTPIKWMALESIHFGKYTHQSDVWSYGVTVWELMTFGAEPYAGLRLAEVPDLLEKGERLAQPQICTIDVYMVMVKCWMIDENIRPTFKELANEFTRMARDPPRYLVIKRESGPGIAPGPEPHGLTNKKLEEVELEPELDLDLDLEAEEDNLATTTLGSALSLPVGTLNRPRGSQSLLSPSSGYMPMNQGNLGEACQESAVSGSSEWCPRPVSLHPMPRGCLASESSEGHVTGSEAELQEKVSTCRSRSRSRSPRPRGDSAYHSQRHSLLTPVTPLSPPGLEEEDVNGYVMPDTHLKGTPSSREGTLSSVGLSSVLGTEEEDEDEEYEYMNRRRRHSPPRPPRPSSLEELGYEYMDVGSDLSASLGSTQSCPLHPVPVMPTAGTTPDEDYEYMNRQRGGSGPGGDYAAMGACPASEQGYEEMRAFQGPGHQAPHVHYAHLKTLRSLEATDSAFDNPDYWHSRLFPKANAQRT

T3: rhesus monkey ERBB3 human Fc tagged recombinant protein (rhesus monkey (Macaca mulatta), UniProt P21860 20-643 (human entry), limits assumed)
T3 construct: also called rhesus ERBB3-Fc; rhERBB3
T3 chain: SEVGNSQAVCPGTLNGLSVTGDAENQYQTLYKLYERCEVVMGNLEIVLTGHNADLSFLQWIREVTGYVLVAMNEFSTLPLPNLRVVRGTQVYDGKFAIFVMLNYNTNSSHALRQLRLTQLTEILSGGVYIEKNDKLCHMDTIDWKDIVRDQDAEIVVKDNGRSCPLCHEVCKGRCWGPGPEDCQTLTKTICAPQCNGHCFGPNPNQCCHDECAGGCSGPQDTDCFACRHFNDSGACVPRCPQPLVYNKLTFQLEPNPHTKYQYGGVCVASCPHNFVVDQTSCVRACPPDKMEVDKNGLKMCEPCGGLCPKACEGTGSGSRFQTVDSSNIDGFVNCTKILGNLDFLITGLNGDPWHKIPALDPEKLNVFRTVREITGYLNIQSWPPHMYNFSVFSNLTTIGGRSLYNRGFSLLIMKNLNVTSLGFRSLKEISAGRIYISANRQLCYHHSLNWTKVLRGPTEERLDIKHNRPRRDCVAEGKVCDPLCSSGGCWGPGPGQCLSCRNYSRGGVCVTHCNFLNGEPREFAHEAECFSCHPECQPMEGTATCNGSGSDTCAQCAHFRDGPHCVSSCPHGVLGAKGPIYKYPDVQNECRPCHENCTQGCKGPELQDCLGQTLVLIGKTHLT


What was measured:
[1] = biological target: T4, human ERBB3 His tagged, monomeric (human, UniProt P21860 20-643, biotinylated in the Alphascreen assays (sites not given)); test: SPR (Biacore)
T4 construct: Used unbiotinylated as Biacore analyte and biotinylated in Alphascreen; treated as one molecule; also called human ERBB3-His (Acrobiosystems); biotinylated monomeric human ERBB3
Experimental: (§1) Affinity (KD) of purified IgGs was determined via SPR with antigen in-solution on a Biacore® 3000 (GE). A mouse anti-human antibody (CH1 specific) was immobilized on a CM5 Sensor Chip to a level of 2000 RU in acetate buffer at pH 4.5 using amine coupling following the Wizard instructions for two channels. One channel was used for background signal correction. The standard running buffer HBS-EP pH 7.4 was used. Regeneration was performed with a single injection of 10 μl of 10 mM Glycine at pH 1.5 at […]. IgG samples were injected for 2 minutes at 50 nM at 30 μl/min followed by an off-rate of 60 seconds. The monomeric antigen (human ERBB3 His tagged or rhesus monkey ERBB3 His tag) was injected in two fold serial dilutions from 3 nM down to 0.2 nM, for 2 minutes at 30 μl/min followed by an off-rate of 300 seconds. The obtained sensorgrams were analysed using the Biacore® 3000 evaluation (BlAevaluation) software. The KD was calculated by simultaneous fitting of the association and dissociation phases to a 1:1 Langmuir binding model.

[2] = biological target: T1, rhesus monkey ERBB3 His tag, monomeric; test: SPR (Biacore)
Experimental: as §1

[3] = biological target: T5, human ERBB3 on transiently transfected HEK-293 cells (human, UniProt P21860 20-1342); test: flow cytometry, human ERBB3-transfected HEK-293
T5 construct: also called human ERBB3+ HEK-293 cells
Procedure, shortened: (§2)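 Purified IgGs in IgG1null format were titrated threefold from 500 nM to 0.008 nM on HEK-293 cells transiently transfected with full-length human or rhesus ERBB3, with wild-type HEK-293 as comparison. Binding was detected with FITC anti-human IgG and read as mean fluorescence intensity of 10000 cells by flow cytometry.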

[4] = biological target: T2, rhesus ERBB3 on transiently transfected …; test: flow cytometry, rhesus ERBB3-transfected HEK-293
Procedure, shortened: as §2

[5] = biological target: T4, human ERBB3 His tagged, monomeric; test: SPR (Biacore), captured IgG, monomeric ERBB3-His analyte
[6] = biological target: T1, rhesus monkey ERBB3 His tag, monomeric; test: as above
[7] = biological target: T6, human insulin (human, UniProt P01308 25-54; P01308 90-110, limits assumed); test: polyreactivity ELISA on human insulin, score
T6 construct: Off-target protein in the development risk (polyreactivity) ELISA

[8] = biological target: T4, human ERBB3 His tagged, monomeric; test: Alphascreen competition, solution phase; competitor h24C05 IgG1
[9] = biological target: T7, human ERBB3 human Fc tagged recombinant protein (human, UniProt P21860 20-643); test: direct binding ELISA on coated human ERBB3-Fc, IgG1 titrated
T7 construct: also called human ERBB3-Fc; huERBB3
Experimental: (§3) Binding and cross-reactivity of the lead panel to the recombinant proteins was initially assessed by binding ELISA. The human ERBB3 human Fc tagged recombinant protein and the rhesus monkey ERBB3 human Fc tagged recombinant protein were coated to the surface of MaxiSorp™ flat-bottom 96 well plate at 1 μg/ml. The purified IgG samples were titrated in two fold serial dilutions starting from 500 nM to 0.008 nM and allowed to bind to the coated antigens. The Fabs were detected using mouse anti-c-myc antibody followed by donkey anti-mouse IgG conjugated to horseradish peroxidase. The IgGs were detected using the mouse anti-human IgG conjugated to horseradish peroxidase. Binding signals were visualized with 3,3′,5,5′-Tetramethylbenzidine Substrate Solution (TMB) and the absorbance measured at 450 nm.

[10] = biological target: T3, rhesus monkey ERBB3 human Fc tagged …; test: direct binding ELISA on coated rhesus ERBB3-Fc, IgG1 titrated
Experimental: as §3

[11] = biological target: T2, rhesus ERBB3 on transiently transfected …; test: flow cytometry, rhesus ERBB3-transfected HEK-293 cells, IgG1 titrated
Experimental: Purified IgGs were tested in FACs for binding to human and rhesus monkey ERBB3 expressed on transiently transfected HEK-293 cells and HEK-293 wild-type cells. The IgG samples were titrated in three-fold serial dilutions starting at 500 nM to 0.008 nM. Binding of IgGs was detected with a mouse anti-human IgG conjugated to FITC. Results were analyzed by examining the Mean Fluorescence Intensity (MFI) of 10000 cells per sample in the BL-1 channel detector of a flow cytometer (Attune™ NxT Acoustic Focusing Cytometer, Invitrogen/ThermoFisher Scientific).

[12] = biological target: T4, human ERBB3 His tagged, monomeric; test: Alphascreen competition in solution, competitor h24C05 IgG1null, biotinylated human ERBB3-His
Experimental: The AlphaScreen assay (Perkin Elmer) was performed in a 25 μl final volume in 384-well white microtiter plates (Greiner). The reaction buffer contained 1×PBS pH 7.3 (Oxoid, Cat. nr. BR0014G) and 0.05% (v/v) Tween® 20 (Sigma, Cat. nr. P9416). Purified IgG samples were titrated in three fold serial dilutions starting at 100 nM final concentration and incubated with biotinylated human ERBB3-His (Acrobiosystems) at 1 nM final concentration for 20 minutes at room temperature. The parental IgG and the anti-human IgG1 Acceptor beads at were added and the mix was incubated for 1 hour at room temperature. Followed by addition of the Streptavidin Donor beads and incubation for 30 minutes at room temperature. The emission of light was measured in the EnVision multilabel plate reader (Perkin Elmer) and analysed using the EnVision manager software. Values were reported as Counts Per Second (CPS) and corrected for crosstalk.

T6 sequence (P01308 25-54 limits assumed, chain 1 of 2): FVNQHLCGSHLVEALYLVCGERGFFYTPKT
T6 sequence (P01308 90-110 limits assumed, chain 2 of 2): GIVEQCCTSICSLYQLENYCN

| Binder | fold reduction in binding affinity against clone MH2 [1] [fold] | fold reduction in binding affinity against clone MH2 [2] [fold] | maximum MFI, fold over isotype control background [3] [fold] | maximum MFI, fold over isotype control background [4] [fold] | Kd [5] [nM] | koff [5] [s⁻¹] | kon [5] [M⁻¹ s⁻¹] | Kd [6] [nM] | koff [6] [s⁻¹] | kon [6] [M⁻¹ s⁻¹] | binding result [7] | IC50 [8] [nM] | EC50 (read off the curve) [9] [nM] | EC50 (read off the curve) [10] [nM] | EC50 (read off the curve) [11] [nM] | IC50 (read off the curve) [12] [nM] |
| --- | --- | --- | --- | --- | --- | --- | --- | --- | --- | --- | --- | --- | --- | --- | --- | --- |
| MH3 IgG1null (antibody, V domains shown, Designer (Maximally Humanized) clone; Human IgG1null and human Ckappa) VH: QVQLVESGGGLVKPGGSLRLSCAASGFTFSDYSMSWIRQAPGKGLEWVSTISDSGSTIYYADSVKGRFTISRDNAKNSLYLQMNSLRAEDTAVYYCAREWGDYDGFDFWGQGTLVTVSS VL: DIQMTQSPSSLSASVGDRVTITCRASQSISSYLSWYQQKPGKAPKLLIYAASSLQSGVPSRFSGSGSGTDFTLTISSLQPEDFATYYCLQYDSTPLTFGGGTKVEIK | ~3 | ~3 | > 20 | > 20 | 0.85 | 0.0065 | 7.6e+06 | 0.63 | 0.011 | 1.8e+07 | – | – | – | – | – | – |
| h24C05 IgG1 (antibody, V domains shown, Human IgG1 and human Ckappa; also called humanized 24C05) VH: QVQLVESGGGLVKPGGSLRLSCAASGFTFSDYAMSWIRQAPGKGLEWVSTISDGGTYTYYPDNVKGRFTISRDNAKNSLYLQMNSLRAEDTAVYYCAREWGDYDGFDYWGQGTLVTVSS VL: DIQMTQSPSSLSASVGDRVTITCRASQEISGYLSWFQQKPGKAPKSLIYAASTLDSGVPSRFSGSGSGTDFTLTISSLQPEDFATYYCLQYDSYPYTFGGGTKVEIK | – | – | – | – | – | – | – | – | – | – | no binding | 1.25 | ~0.1 | ~0.1 | ~0.2 | – |
| h24C05 IgG1null (antibody, V domains shown, Human IgG1null (L234A, L235A, G237A) and human Ckappa; also called humanized 24C05) VH: QVQLVESGGGLVKPGGSLRLSCAASGFTFSDYAMSWIRQAPGKGLEWVSTISDGGTYTYYPDNVKGRFTISRDNAKNSLYLQMNSLRAEDTAVYYCAREWGDYDGFDYWGQGTLVTVSS VL: DIQMTQSPSSLSASVGDRVTITCRASQEISGYLSWFQQKPGKAPKSLIYAASTLDSGVPSRFSGSGSGTDFTLTISSLQPEDFATYYCLQYDSYPYTFGGGTKVEIK | – | – | > 20 | > 20 | 0.039 | 0.00096 | 2.5e+07 | 0.18 | 0.00074 | 4.1e+06 | – | – | – | – | – | ~5 |
